These results are taken from patent publication US20200230249A1 (UREKA SARL, published 2020).

Numbered stars: 1 amine (or outer) side, 2 acyl side, 3 side chain; on linkers, the order of the positions; unused ones are H or OH. Square brackets hold non-standard residues; d marks the D form. Ends that are not written are not given here. A^u = urea/ureido (oligourea) residue with alanine side chain, C[C@@H](CNC(=O)[*:2])N[*:1]; Au = A^u, ureido (oligourea) alanine residue, C[C@@H](CNC(=O)[*:2])N[*:1]; D^uα = urea/ureido residue with aspartic acid side chain; E^u = urea/ureido residue with glutamic acid side chain; Y^u = urea/ureido residue with tyrosine side chain

First the molecules themselves.
B1: GG2[A^UA^UA^U]^17-20 (peptide)
peptide: HGEGTFTSDVSSYLEG[A^u][A^u][A^u]EFIAWLVKGRG-NH2
modifications: N-terminus assumed
SMILES: CC[C@H](C)[C@H](NC(=O)[C@H](Cc1ccccc1)NC(=O)[C@H](CCC(=O)O)NC(=O)NC[C@H](C)NC(=O)NC[C@H](C)NC(=O)NC[C@H](C)NC(=O)CNC(=O)[C@H](CCC(=O)O)NC(=O)[C@H](CC(C)C)NC(=O)[C@H](Cc1ccc(O)cc1)NC(=O)[C@H](CO)NC(=O)[C@H](CO)NC(=O)[C@@H](NC(=O)[C@H](CC(=O)O)NC(=O)[C@H](CO)NC(=O)[C@@H](NC(=O)[C@H](Cc1ccccc1)NC(=O)[C@@H](NC(=O)CNC(=O)[C@H](CCC(=O)O)NC(=O)CNC(=O)[C@@H](N)Cc1c[nH]cn1)[C@@H](C)O)[C@@H](C)O)C(C)C)C(=O)N[C@@H](C)C(=O)N[C@@H](Cc1c[nH]c2ccccc12)C(=O)N[C@@H](CC(C)C)C(=O)N[C@H](C(=O)N[C@@H](CCCCN)C(=O)NCC(=O)N[C@@H](CCCNC(=N)N)C(=O)NCC(N)=O)C(C)C
B2: GG2[A^UA^UA^U]^19-22 (peptide)
peptide: HGEGTFTSDVSSYLEGQA[A^u][A^u][A^u]IAWLVKGRG-NH2
modifications: N-terminus assumed
SMILES: CC[C@H](C)[C@H](NC(=O)NC[C@H](C)NC(=O)NC[C@H](C)NC(=O)NC[C@H](C)NC(=O)[C@H](C)NC(=O)[C@H](CCC(N)=O)NC(=O)CNC(=O)[C@H](CCC(=O)O)NC(=O)[C@H](CC(C)C)NC(=O)[C@H](Cc1ccc(O)cc1)NC(=O)[C@H](CO)NC(=O)[C@H](CO)NC(=O)[C@@H](NC(=O)[C@H](CC(=O)O)NC(=O)[C@H](CO)NC(=O)[C@@H](NC(=O)[C@H](Cc1ccccc1)NC(=O)[C@@H](NC(=O)CNC(=O)[C@H](CCC(=O)O)NC(=O)CNC(=O)[C@@H](N)Cc1c[nH]cn1)[C@@H](C)O)[C@@H](C)O)C(C)C)C(=O)N[C@@H](C)C(=O)N[C@@H](Cc1c[nH]c2ccccc12)C(=O)N[C@@H](CC(C)C)C(=O)N[C@H](C(=O)N[C@@H](CCCCN)C(=O)NCC(=O)N[C@@H](CCCNC(=N)N)C(=O)NCC(N)=O)C(C)C
B3: GG2[A^UA^UA^U]^24-27 (peptide)
peptide: HGEGTFTSDVSSYLEGQAAKEFIXXXKGRG
modifications: ureido (oligourea) residues A^u A^u A^u at positions 24-26 of the hybrid, replacing residues 24-27 of GLP-1-G2; C-terminal amide
B4: GG2[A^UA^UA^U]^23-26 (peptide)
peptide: HGEGTFTSDVSSYLEGQAAKEF[A^u][A^u][A^u]VKGRG-NH2
modifications: N-terminus assumed
SMILES: CC(C)C[C@H](NC(=O)[C@H](Cc1ccc(O)cc1)NC(=O)[C@H](CO)NC(=O)[C@H](CO)NC(=O)[C@@H](NC(=O)[C@H](CC(=O)O)NC(=O)[C@H](CO)NC(=O)[C@@H](NC(=O)[C@H](Cc1ccccc1)NC(=O)[C@@H](NC(=O)CNC(=O)[C@H](CCC(=O)O)NC(=O)CNC(=O)[C@@H](N)Cc1c[nH]cn1)[C@@H](C)O)[C@@H](C)O)C(C)C)C(=O)N[C@@H](CCC(=O)O)C(=O)NCC(=O)N[C@@H](CCC(N)=O)C(=O)N[C@@H](C)C(=O)N[C@@H](C)C(=O)N[C@@H](CCCCN)C(=O)N[C@@H](CCC(=O)O)C(=O)N[C@@H](Cc1ccccc1)C(=O)N[C@@H](C)CNC(=O)N[C@@H](C)CNC(=O)N[C@@H](C)CNC(=O)N[C@H](C(=O)N[C@@H](CCCCN)C(=O)NCC(=O)N[C@@H](CCCNC(=N)N)C(=O)NCC(N)=O)C(C)C
B5: GG2[F^UαI^UA^U]^22-25 (peptide)
peptide: HGEGTFTSDVSSYLEGQAAKEXXXLVKGRG
modifications: ureido (oligourea) residues F^uα I^u A^u at positions 22-24 of the hybrid, replacing residues 22-25 of GLP-1-G2; C-terminal amide

The experiment addresses T1, mouse GLP-1 receptor endogenously expressed in βTC6 cells (mouse, UniProt O35659 22-463).
T1 sequence (looked up): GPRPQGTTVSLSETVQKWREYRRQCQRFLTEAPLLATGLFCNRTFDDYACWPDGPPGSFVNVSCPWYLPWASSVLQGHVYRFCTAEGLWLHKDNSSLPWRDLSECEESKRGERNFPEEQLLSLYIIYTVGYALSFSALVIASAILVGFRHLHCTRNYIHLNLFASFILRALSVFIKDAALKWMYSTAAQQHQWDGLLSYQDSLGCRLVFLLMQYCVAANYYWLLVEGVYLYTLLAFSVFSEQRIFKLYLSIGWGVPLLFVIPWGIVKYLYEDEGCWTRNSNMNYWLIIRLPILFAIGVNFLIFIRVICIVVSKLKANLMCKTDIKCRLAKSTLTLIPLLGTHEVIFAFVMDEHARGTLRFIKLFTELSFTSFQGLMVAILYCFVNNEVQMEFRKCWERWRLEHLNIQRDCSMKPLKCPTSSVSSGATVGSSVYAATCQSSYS
Briefly: cell-based or functional assay.
As for HGEGTFTS[D^uα][A^u][A^u]YLEGQAAKEFIAWLVKGRG-NH2 [GG2[D^UαA^UA^U]^9-12], the “EC50 (nM), cAMP production functional assay” value (“EC50 (nM)” for short) came to 13 nM and the “Potency (%) compared to GLP-1-G^2, cAMP production” value (“Potency (%)” below) was 2%.
On to B1, for which the “EC50 (nM)” value amounted to 1600 nM and the “Potency (%)” value worked out at 0.01%.
In the case of HGEGTFTSDVSSYL[E^u][A^u][A^u]AKEFIAWLVKGRG-NH2 [GG2[E^UA^UA^U]^15-18], the “EC50 (nM)” value was 1.9 nM and the “Potency (%)” value is 13%.
In the case of HGEGTFTSDVSSYLEGQ[A^u][A^u][A^u]FIAWLVKGRG-NH2 [GG2[A^UA^UA^U]^18-21], the “EC50 (nM)” value came out at 4.1 nM and the “Potency (%)” value was 6%.
As for H-HGEGTFTSDVS[Au][Au][Au]GQAAKEFIAWLVKGRG-NH2 (also: oligourea (urea) backbone at A^u units) [GG2[A^UA^UA^U]^12-15], the “EC50 (nM)” value was greater than 10000 nM and the “Potency (%)” value was less than 0.01%.
Turning to HGEGTFTSDVSS[Au][Au][Au]QAAKEFIAWLVKGRG-NH2 (also: oligourea (urea) backbone at A^u units) [GG2[A^UA^UA^U]^13-16], the “EC50 (nM)” value is greater than 10000 nM and the “Potency (%)” value is less than 0.01%.
Take HGEGTFTSDV[Au][Au][Au]EGQAAKEFIAWLVKGRG-NH2 (also: oligourea (urea) backbone at A^u units) [GG2[A^UA^UA^U]^11-14]: the “EC50 (nM)” value was found to be 97 nM and the “Potency (%)” value was 0.2%.
Consider B2, for which the “EC50 (nM)” value was greater than 10000 nM and the “Potency (%)” value was less than 0.01%.
For the molecule HGEGTFTSDV[A^u][Y^u][A^u]EGQAAKEFIAWLVKGRG-NH2 [GG2[A^UY^UA^U]^11-14], the “EC50 (nM)” value was 1.6 nM and the “Potency (%)” value was determined as 15%.
For H-HGEGTFTSDVSSY[Au][Au][Au]AAKEFIAWLVKGRG-NH2 (also: oligourea (urea) backbone at A^u units) [GG2[A^UA^UA^U]^14-17], the “EC50 (nM)” value was determined as 353 nM and the “Potency (%)” value was 0.07%.
Regarding H-HGEGTFTSDVSSYLEGQAAKEFIAWLVKGRG-NH2 [GLP-1-G^2 (GG2)], the “EC50 (nM)” value stood at 0.24 nM and the “Potency (%)” value worked out at 100%.
In the same order, the values of HGEGTFTSDVSSY[Y^u][E^u][A^u][A^u][A^u][A^u]FIAWLVKGRG-NH2 [GG2[Y^uE^uA^uA^uA^uA^u]^14-21] are 3.4 nM and 7%.
Turning to H-HGEGTFTSDVSSYL[Au][Au][Au]AKEFIAWLVKGRG-NH2 (also: oligourea (urea) backbone at A^u units) [GG2[A^UA^UA^U]^15-18], the “EC50 (nM)” value is 123 nM and the “Potency (%)” value came out at 0.2%.
With H-HGEGTFTSD[Au][Au][Au]LEGQAAKEFIAWLVKGRG-NH2 (also: oligourea (urea) backbone at A^u units) [GG2[A^UA^UA^U]^10-13], the “EC50 (nM)” value was determined as 650 nM and the “Potency (%)” value came to 0.04%.
For B3, the “EC50 (nM)” value was greater than 10000 nM and the “Potency (%)” value was less than 0.01%.
In the case of B4, the “EC50 (nM)” value was determined as 3930 nM and the “Potency (%)” value worked out at 0.01%.
As for HGEGTFTSDVSSY[Y^u][E^u][A^u]AAKEFIAWLVKGRG-NH2 [GG2[Y^UE^UA^U]^14-17], the “EC50 (nM)” value was found to be 0.18 nM and the “Potency (%)” value worked out at 135%.
In the same order, the values of B5 are 62 nM and 0.4%.
For H-HGEGTFTSDVSSYLE[Au][Au][Au]KEFIAWLVKGRG-NH2 (also: oligourea (urea) backbone at A^u units) [GG2[A^UA^UA^U]^16-19], the “EC50 (nM)” value turned out to be 240 nM and the “Potency (%)” value came to 0.1%.
